Results taken from the supplement of paper PMC10567573.
± gives the standard deviation.

Test: protein stability index of a GFP-peptide fusion (GPS, HEK-293T) (PSI 1-6); higher = more stable
[1] = treatment: DMSO, c terminus: a fixed tail appended
[2] = treatment: MLN4924 1 uM, 8 h, c terminus: a fixed tail appended
[3] = treatment: DMSO, c terminus: native
[4] = treatment: MLN4924 1 uM, 8 h, c terminus: native
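Note: 24-mer peptide tiles fused after GFP, lentivirally expressed, FACS-sorted into six equal bins by GFP/DsRed ratio, decoded by Illumina sequencing, PSI is the read-weighted mean bin number.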

| Sequence | protein stability index [1] | protein stability index [2] | protein stability index [3] | protein stability index [4] |
| --- | --- | --- | --- | --- |
| QYQANKVTHTLTMRQRISRVEESA [PPEF2] | 3.65 ± 0.16 | 3.77 ± 0.16 | – | – |
| QYRPSDLLCPETYVWVPIEQCLPS [ATE1] | 2.28 ± 0.23 | 2.47 ± 0.28 | – | – |
| RAGEGFIICYSITDRRSFHEVREF [RIT1] | 3.04 ± 0.81 | 2.48 ± 0.71 | – | – |
| RASFWLALVGCVISDNPERYSTNL [EDNRA] | 2.85 ± 0.68 | 2.97 ± 0.62 | – | – |
| RCEMEAQNQEYKMLLDIKTRLEQE [KRT15] | 4.44 ± 0.17 | 4.6 ± 0.18 | – | – |
| RDIDLKNRRGGPPFAFVEFEDPRD [SRSF1] | 4.03 ± 0.35 | 4.27 ± 0.18 | – | – |
| RDSLTQPDEEPMHYGNIMYDRRVI [RSPH3] | 3.62 ± 0.45 | 3.8 ± 0.23 | – | – |
| REAVSQLRELCRLWLRPETHTKEQ [ZNF24] | 2.8 ± 0.32 | 3.03 ± 0.41 | – | – |
| RELLLDGGYLQRTTYDRRSSQERK [RSPH3] | 4.39 ± 0.28 | 4.8 ± 0.24 | – | – |
| RENMSDGDTSATESGDEVPVELYT [KMT2E] | 5.32 ± 0.21 | 5.21 ± 0.22 | – | – |
| REVMESAVGNSSGSGQNEESPRKR [FBXO28] | 5.51 ± 0.14 | 5.49 ± 0.38 | – | – |
| RFFACPSKATFSRNIMNLIDIVAI [KCNA3] | 2.8 ± 0.61 | 2.87 ± 0.46 | – | – |
| RFFASSSLHHTSECTQMDHLGCMH [ALDH8A1] | 2.87 ± 0.22 | 2.85 ± 0.32 | – | – |
| RFFIDFPHIEEQQKKIESYLHNHF [TENT5D] | 2.13 ± 0.38 | 2.35 ± 0.18 | – | – |
| RGDIFERIVHLQETCDLGKIKPEA [NLN] | 3.59 ± 0.37 | 3.6 ± 0.29 | – | – |
| RGFMEMNGRGELVESLKRFCASTR [AUP1] | 2.54 ± 0.3 | 2.73 ± 0.18 | – | – |
| RGGGAAGAGGGGSGAGGGSGGSGG [KLHDC10] | 5.2 ± 0.66 | 4.89 ± 0.48 | – | – |
| RHFGTILNYLRDGSVPLPESTREL [KCTD13] | 2.78 ± 0.16 | 2.94 ± 0.41 | – | – |
| RIKIWDVYTGKLLLNLVDHTEVVR [WSB1] | 2.61 ± 0.59 | 2.57 ± 0.34 | – | – |
| RIPYTKSQTEAHYSCQSKEILRYM [P2RY14] | 2.42 ± 0.32 | 2.45 ± 0.49 | – | – |
| RIRIDDEPANLDILDTAGQAEFTA [RIT1] | 4.62 ± 0.23 | 4.77 ± 0.11 | – | – |
| RKGKDKENGSVSSSETPPPPPPPN [EIF5] | 5.15 ± 0.2 | 5.22 ± 0.28 | – | – |
| RKHSDLEEEEERWEWSPAGLQSYQ [SERTAD3] | 4.35 ± 0.26 | 4.38 ± 0.17 | – | – |

| Sequence | protein stability index [1] | protein stability index [2] | protein stability index [3] | protein stability index [4] |
| --- | --- | --- | --- | --- |
| RKVKSTITLDGGVLVHVQKWDGKS [FABP4] | 3 ± 0.23 | 3.15 ± 0.52 | – | – |
| RLPNRQLISCSEDGSVRIWELREK [WDR41] | 3.23 ± 0.2 | 3.31 ± 0.42 | – | – |
| RMTGGRPPLPPPDDPATLGPHLGL [DYRK1B] | 4.2 ± 0.2 | 4.26 ± 0.18 | – | – |
| RPPAYSPAQRSHTYTHGLGLHRRP | 3.63 ± 0.28 | 3.75 ± 0.16 | – | – |
| RPPGPAGTEQSRGLGHGSTSRGGP [CPOX] | 4.794 ± 0.018 | 4.92 ± 0.33 | – | – |
| RPVLLSKIEGHQDAVTAALLIPKE [WDFY1] | 3.87 ± 0.28 | 3.94 ± 0.34 | – | – |
| RQKDLKFLSEEEYWKLQIFFTNVI [CCNC] | 2.57 ± 0.25 | 2.47 ± 0.83 | – | – |
| RQTKKMFCDMDKSLLCLLCSNSQE [TRIM43] | 2.44 ± 0.15 | 2.86 ± 0.21 | – | – |
| RQVNIRTANCTTANQNCVNKSKLL [KCNA1] | 3.51 ± 0.12 | 3.48 ± 0.28 | – | – |
| RREQAAAAPFPSPAPASPAISVVG [TFE3] | 4.22 ± 0.35 | 4.24 ± 0.18 | – | – |
| RRKCGQYWPLEKDSRIRFGFLTVT [PTPN9] | 2.3 ± 0.69 | 2.16 ± 0.47 | – | – |
| RRLIKRFSFKSKPKANGNPSPQL [C2CD2L] | – | – | 4.24 ± 0.3 | 4.38 ± 0.16 |
| RRLPLAFRDATSAPLRKLSVDLIK [DYRK1B] | 2.46 ± 0.39 | 2.45 ± 0.26 | – | – |
| RRNEETPEEGQQPWLCGESFTLAD [GDAP1] | 5.02 ± 0.13 | 4.99 ± 0.3 | – | – |
| RRYVASVSLHDRIYVIGGYDGRSR [KLHL12] | 2.53 ± 0.31 | 2.49 ± 0.5 | – | – |
| RSIQGHNDYICPATNQCTIDKNRR [ESR2] | 3.84 ± 0.43 | 4.21 ± 0.33 | – | – |
| RSLNVFVKDDDRLTFHRHPVAQST [SPSB4] | 3.51 ± 0.3 | 3.62 ± 0.29 | – | – |
| RTPRLMPDKESMYYPRVQHYRELL [GDAP1] | 2.52 ± 0.17 | 2.61 ± 0.27 | – | – |
| RTRTATMLCAASGNPDPEITWFKD [PTPRD] | 3.64 ± 0.15 | 3.72 ± 0.35 | – | – |
| RVEFPRSGRGTGRGGGGGGGGGAP [SRSF1] | 4.7 ± 0.39 | 4.8 ± 0.28 | – | – |
| RVERRFHFSQSLTVIHDFLFSLKE [FAF2] | 2.17 ± 0.15 | 2.44 ± 0.23 | – | – |
| RWALLSCRGKKPSRIYGQAMAIIN [KLHDC10] | 2.32 ± 0.55 | 2.18 ± 0.32 | – | – |
| RWSLISLSNKNGKNVELKFVDSIR [TENT5C] | 2.39 ± 0.26 | 2.36 ± 0.44 | – | – |

| Sequence | protein stability index [1] | protein stability index [2] | protein stability index [3] | protein stability index [4] |
| --- | --- | --- | --- | --- |
| RYFYLLENIAWVKSYNICFELEDS [PDS5B] | 2.75 ± 0.2 | 2.05 ± 0.61 | – | – |
| RYLEAEFKKGNRYIRCQKEVGKSF [SMG5] | 2.57 ± 0.71 | 2.29 ± 0.21 | – | – |
| RYTGTTPSPPPGSHYTSPSENMWN [CARM1] | 3.48 ± 0.23 | 3.57 ± 0.23 | – | – |
| SAAGHLKVVQSLLNHGASVNNTTL [FEM1C] | 3.06 ± 0.21 | 3.13 ± 0.38 | – | – |
| SAGEQKTERMDKVGDALEEVLSKA [GADD45A] | 5.58 ± 0.18 | 5.41 ± 0.26 | – | – |
| SAKNTSHPGSGTKVQFNLQFTKPN [SASS6] | 3.35 ± 0.12 | 3.61 ± 0.14 | – | – |
| SALATQYMHCVNHAKQSMLEKGG [CHCHD3] | – | – | 2.81 ± 0.55 | 3.02 ± 0.34 |
| SASHRPCVNGDVDKPSEPASEEGS [SMG5] | 5.49 ± 0.17 | 5.641 ± 0.046 | – | – |
| SDAAFGGILERYWLSSRAAAIKVN [MYORG] | 2.19 ± 0.2 | 2.17 ± 0.21 | – | – |
| SDINSLRRILDELTLCRSDLEAQM [KRT33B] | 2.85 ± 0.36 | 2.92 ± 0.38 | – | – |
| SDPSTIEASNFQMDRKTRFIIHGF [PNLIPRP1] | 2.42 ± 0.067 | 2.37 ± 0.26 | – | – |
| SDTRVGAPATGSGTPGPFTKEGGM [CHIT1] | 4.76 ± 0.26 | 4.98 ± 0.14 | – | – |
| SDTTHLVTLGGVLRQQLVVSKELR [KLHL13] | 3.04 ± 0.069 | 3.1 ± 0.3 | – | – |
| SDVLTISGTIMKIGIEAKNLASYD [MCOLN1] | 2.39 ± 0.24 | 2.5 ± 0.33 | – | – |
| SDVVGRRSSLLACILLSALGYLLL [MFSD9] | 3.22 ± 0.32 | 3.19 ± 0.26 | – | – |
| SEEKGHPQEESEESNVSMASLGEK [CHGB] | 5.48 ± 0.21 | 5.61 ± 0.19 | – | – |
| SEGLVGALMHVMQKRSRAIHSSDE [WAS] | 3.67 ± 0.3 | 3.79 ± 0.15 | – | – |
| SEVKEELAGQKDELQLSDLLKQGY [PKD2L1] | 4.81 ± 0.28 | 4.92 ± 0.24 | – | – |
| SFGACLREETPRMPSWASARDRQP [ELOA2] | 3.4 ± 0.34 | 3.13 ± 0.32 | – | – |
| SFLWQRGRKFLQKHLNASNPTEPA [TOR1AIP2] | 2.86 ± 0.13 | 3.05 ± 0.17 | – | – |
| SFVKKNVLVTGGFFGGFLLGMAS [FUNDC2] | – | – | 3.64 ± 0.15 | 2.96 ± 0.41 |
| SGIGREGAKDSYDFFTEIKTITVK [ALDH8A1] | 3.27 ± 0.37 | 3.28 ± 0.4 | – | – |
| SGLRMVPEHRAFGSPFGLEEPQWV [ZFYVE21] | 2.8 ± 0.14 | 2.93 ± 0.26 | – | – |

| Sequence | protein stability index [1] | protein stability index [2] | protein stability index [3] | protein stability index [4] |
| --- | --- | --- | --- | --- |
| SGPEAARAGGWVSGEEFYMLTRRV [PKD2L1] | 2.69 ± 0.29 | 2.96 ± 0.49 | – | – |
| SINTHLGKEQSRRDDLEALGHMFM [CSNK1G3] | 2.81 ± 0.28 | 3.03 ± 0.49 | – | – |
| SKKLRAILPKQSRKSMLDAGPDSW [LCOR] | 2.71 ± 0.06 | 3.03 ± 0.44 | – | – |
| SKPGVYTSYKPYLNRDEEIIKQLQ [DENND6A] | – | 3.35 ± 0.42 | – | – |
| SKSADNQEYFERHRWPPVWYLKEE [RHOBTB1] | 3.4 ± 0.29 | 3.43 ± 0.34 | – | – |
| SKSTQFEYAWCLVRSKYNDDIRKG [FIS1] | 2.26 ± 0.34 | 2.55 ± 0.56 | – | – |
| SLEDLIFESLPENASHKLEVRLVP [ATE1] | 2.79 ± 0.3 | 2.98 ± 0.3 | – | – |
| SLKAICTEIANCSLKVKFFDLERE [PLD5] | 2.12 ± 0.17 | 2.26 ± 0.84 | – | – |
| SLKEDLTQHKFICEQCGKCKCGEC [SPRY1] | 5.32 ± 0.36 | 5.22 ± 0.14 | – | – |
| SLVADNCVTLVWRMPDEDSKIDHY [FSD1] | 2.62 ± 0.15 | 2.94 ± 0.34 | – | – |
| SLVMGSQTESALSKKLRAILPKQS [LCOR] | 2.71 ± 0.21 | 2.95 ± 0.37 | – | – |
| SLYILRGSARYDFSHEILRDEESF [ALKBH7] | 2.63 ± 0.21 | 2.2 ± 0.6 | – | – |
| SLYLLLVSCPKSEVRAKFKFSLLN [SPOPL] | 2.56 ± 1.2 | 2.49 ± 0.74 | – | – |
| SMCEHHLVPFVGKVHIGYLPNKQV [GCH1] | 2.16 ± 0.38 | 2.29 ± 0.39 | – | – |
| SMLVAGNDRVQTIITQLEDSRRVT [TRIM63] | 3.81 ± 0.077 | 3.72 ± 0.12 | – | – |
| SMTTPRCYVGATVLRGRLYAIAGY [KLHL12] | 2.14 ± 0.36 | 2.51 ± 0.58 | – | – |
| SNATATPSVRKKAGSFSRRLIKRF [C2CD2L] | 3.47 ± 0.18 | 3.61 ± 0.18 | – | – |
| SNLTSNLASLVSQGMIQLALSGAS [RETREG3] | 3.05 ± 0.12 | 3.15 ± 0.24 | – | – |
| SNNNGRIKQLRSGGTPIRGALQIE [PTPRD] | 3.76 ± 0.33 | 3.85 ± 0.36 | – | – |
| SNRHGHTCLMISCYKGHKEIAQYL [FEM1C] | 2.68 ± 0.55 | 2.43 ± 0.39 | – | – |
